Experimental data from patent publication US20240343803A1 (SHANDONG SIMCERE BIOPHARMACEUTICAL, published 2024).
Changes are numbered by the printed parent chain.

B1: TIGIT-002-H4L3 (antibody, V domains shown)
VH: EVQLQESGPGLVKPSETLSLTCAVSGYSITSDSWNWIRQPPGKKLEYIGYISYSGNTYYNPSLKSRVTISRDTSKNQFSLKLSSVTAADTAVYYCARLDFSNYGGAVDYWGQGTTVTVSS
VL: DIVMTQSPDSLAVSLGERATINCKASQNVRTAVAWYQQKPGQSPKLMIYSASYRYTGVPDRFSGSGSGTDFTLTISSLQAEDVAVYYCQQYYTTPWTFGGGTKVEIK
notes: Humanized anti-TIGIT antibody
B2: TIGIT-005-H2L1d (antibody, V domains shown)
VH: EVQLVQSGAEVKKPGASVKVSCKASGYAFTNYLIEWVRQAPGQRLEWMGVINPGSGGTNYKEKFKGRVTITADKSSSTAYMELSSLRSEDTAVYYCARGEYFFFDYWGQGTTVTVSS
VL: B1 VL with N28H, R30S, T31N, Q38H, M47L, Y91H, T93N, W96H
notes: Humanized anti-TIGIT antibody with NG-site mutation in VL
B3: TIGIT-006-H5L3 (antibody, V domains shown)
VH: B1 VH with I29M, S33Y, N56R, L98G, F100Y, V107M, D108Y, Y109D
VL: DIVMTQSPDSLAVSLGERATINCRASQGVSTTIAWYQQKPGQSPKLLIYSASYRYTGVPRFSGSGSGTDFTLTISSLQAEDVAVYYCQQYYSSPFTFGGGTKVEIK
notes: Humanized anti-TIGIT antibody
B4: TIGIT-070-H1L1 (antibody, V domains shown)
VH: EVQLVQSGAEVKKPGASVKVSCKASGYTFTNYYMHWVRQAPGQRLEWMGRIDPDSGGSKYNEKFKSRVTITVDKSASTAYMELSSLRSEDTAVYYCAREGHYGFYSDYWGQGTTVTVSS
VL: DIQMTQSPSSLSASVGDRVTITCRVSENIYSYLAWYQQKPGKSPKLLIYNAKTLAEGVPSRFSGSGSGTDFTLTISSLQPEDFATYYCQHHYGNPLTFGPGTKVDIK
notes: Humanized anti-TIGIT antibody

Legend:
[1] = molecular target: T1, Fusion protein of extracellular domain of human TIGIT and His-tag (human TIGIT ECD-his) (human); experiment: BIAcore
T1 chain: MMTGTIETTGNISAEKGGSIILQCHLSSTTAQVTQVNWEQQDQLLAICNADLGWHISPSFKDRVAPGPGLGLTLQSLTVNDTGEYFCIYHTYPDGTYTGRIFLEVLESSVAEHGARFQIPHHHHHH

[2] = molecular target: T2, Fusion protein of extracellular domain of human TIGIT and mouse IgG2a Fc fragment (human TIGIT ECD-mFc) (human); experiment: ELISA, human TIGIT ECD-mFc
T2 construct: The entry includes the signal peptide (limits not recoverable) and the mouse IgG2a Fc
T2 chain: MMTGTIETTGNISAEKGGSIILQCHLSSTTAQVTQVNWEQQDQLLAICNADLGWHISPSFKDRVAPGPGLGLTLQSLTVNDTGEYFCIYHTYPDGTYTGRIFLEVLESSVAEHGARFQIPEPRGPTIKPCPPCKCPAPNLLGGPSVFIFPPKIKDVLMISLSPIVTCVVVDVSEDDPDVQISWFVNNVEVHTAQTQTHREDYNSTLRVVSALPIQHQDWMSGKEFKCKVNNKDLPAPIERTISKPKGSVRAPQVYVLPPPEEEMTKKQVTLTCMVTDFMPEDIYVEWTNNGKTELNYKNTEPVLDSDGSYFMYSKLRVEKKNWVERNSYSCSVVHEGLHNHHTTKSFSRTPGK
Summary of the method: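 Antibodies diluted to 13 nM in 1% BSA, then 3-fold serial dilution for 12 concentrations, incubated with milk-blocked plates at 37° C for 1.5-2 h. Bound antibody detected with HRP-labelled secondary antibody (1:5000, 37° C, 1 h) and TMB, stopped with 1M HCl; OD450 nm read.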

[3] = molecular target: T3, TIGIT on human PBMCs stimulated by SEA (human, UniProt Q495A1 22-244); experiment: FACS; binding to SEA-stimulated human PBMC
T3 construct: whole, on cells
T3 sequence (looked up): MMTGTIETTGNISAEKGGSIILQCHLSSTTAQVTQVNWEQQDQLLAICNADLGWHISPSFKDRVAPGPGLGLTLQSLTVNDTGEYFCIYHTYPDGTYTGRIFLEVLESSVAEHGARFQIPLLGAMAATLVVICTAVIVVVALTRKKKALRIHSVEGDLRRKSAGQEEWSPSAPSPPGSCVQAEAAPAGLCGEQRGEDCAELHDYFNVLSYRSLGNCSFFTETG
Description: The fresh human PBMCs (AllCells, PB004-C) were adjusted to a density of 5×10⁵/mL, added with SEA (Toxin Technology, Inc., CAT: AT101) to 100 ng/ml, and cultured at 37° C. with 5% CO₂ for 3 days. The cells were collected 3 days later, washed once with PBS (Hyclone, CAT #SH30256), added with Fc Block (BD, 564220) and then incubated at 4° C. for 10 minutes. After washing twice with PBS, the PBMCs were resuspended to 2×10⁵/50 μL with 1% BSA-PBS. The humanized antibodies were diluted to 80 nM with 1% BSA-PBS (diluted by 3-fold serial dilution for 12 concentration points). The 50 μL cells were then mixed with 50 μL diluted antibodies, and then incubated at 4° C. for 60 minutes. […] After washing twice with PBS, the cell samples were resuspended with 1% BSA-PBS, 100 μL/well and then analyzed by flow cytometry (BD, Canto II).

[4] = molecular target: T4, Full-length human TIGIT on CHO-K1 cells (CHO-K1 human TIGIT) (human, UniProt Q495A1 22-244); experiment: cell binding, CHO-K1 human TIGIT high expression strain
T4 construct: NCBI XP_024309156.1; the entry includes the signal peptide (limits not recoverable); The strain (high, medium, low) is named under assay; also called high expression strain 1D2; medium expression strain 2D10
T4 sequence: T3 sequence (looked up)
Summary of the method: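 Binding was measured by flow cytometry after a 60-minute, 4° C incubation of the antibodies with 2×10⁵ CHO-K1 cells displaying full-length human or cynomolgus monkey TIGIT. Antibody titration: 12 points, threefold serial dilution from 80 nM, in 1% BSA-PBS.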

[5] = molecular target: T4, Full-length human TIGIT on CHO-K1 cells …; experiment: FACS; blocking of Bio-CD155-His binding to CHO-K1 human TIGIT cells
Summary of the method: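 Bound ligand was measured by flow cytometry on a BD Canto II, using CHO-K1 cells expressing human TIGIT at 2×10⁵/40 μL in 1% BSA-PBS. Equal volumes of antibody, as a 12-point 3-fold dilution series starting at 210 nM, and biotinylated CD155-His, diluted to 3 μg/mL, were added to the cells and held at 4° C for 60 min. APC-streptavidin (1:1700) was used for detection at 4° C for 40 min. IC50 values were obtained from the inhibition curves.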

Binder | Kd [1] [nM] | koff [1] [s⁻¹] | kon [1] [M⁻¹ s⁻¹] | EC50 [2] [nM] | EC50 [3] [nM] | EC50 [4] [nM] | IC50 [5] [nM]
B1 | 0.0531 | 0.0003 | 5.65e+06 | 0.0138 | 0.0436 | 0.0249 | 0.137
B2 | 0.0896 | 0.000361 | 4.03e+06 | 0.0291 | 0.0602 | 0.0439 | 0.15
B3 | 0.0639 | 0.00016 | 2.51e+06 | 0.0092 | 0.0916 | 0.022 | 0.171
B4 | 0.0583 | 0.000116 | 1.98e+06 | 0.0149 | 0.121 | 0.026 | 0.212
